How the values were obtained:
[1] = biological target: SKC1 (2aG88‐2b_(ALAB)‐2aG88)‐Pm complex (group G Streptococcus (GGS) strain G88 | group A Streptococcus (GAS) strain ALAB49 | human)
[2] = biological target: SKC2 (2b_(ALAB)‐2aG88‐2b_(ALAB))‐Pm complex (group A Streptococcus (GAS) strain ALAB49 | group G Streptococcus (GGS) strain G88 | human)
[3] = biological target: SK2aG88‐Pm complex (streptokinase of group G Streptococcus G88 with plasmin) (group G Streptococcus (GGS) strain G88 | human)
[4] = biological target: SK2bALAB49‐Pm complex (streptokinase of group A Streptococcus ALAB49 with plasmin) (group A Streptococcus (GAS) strain ALAB49 | human)
[5] = biological target: SKC1 (2aG88‐2b_(ALAB)‐2aG88)‐Pm complex (group G Streptococcus (GGS) strain G88 | group A Streptococcus (GAS) strain ALAB49 | human); remark: listed apart in the source
[6] = biological target: SKC2 (2b_(ALAB)‐2aG88‐2b_(ALAB))‐Pm complex (group A Streptococcus (GAS) strain ALAB49 | group G Streptococcus (GGS) strain G88 | human); remark: listed apart in the source
[7] = biological target: SK2aG88‐Pm complex (streptokinase of group G Streptococcus G88 with plasmin) (group G Streptococcus (GGS) strain G88 | human); remark: listed apart in the source
[8] = biological target: SK2bALAB49‐Pm complex (streptokinase of group A Streptococcus ALAB49 with plasmin) (group A Streptococcus (GAS) strain ALAB49 | human); remark: listed apart in the source

## plasminogen (natural protein)
[1]
  K m of the proteolytic activity (substrate affinity): 100 nM SK, Pg 0.3–5.0 µM as substrate, 0.1 mM S2251, absorbance at 405 nM: 2.05 µM
[2]
  K m of the proteolytic activity (substrate affinity): 100 nM SK, Pg 0.3–5.0 µM as substrate, 0.1 mM S2251, absorbance at 405 nM: 3.45 µM
[3]
  K m of the proteolytic activity (substrate affinity): 100 nM SK, Pg 0.3–5.0 µM as substrate, 0.1 mM S2251, absorbance at 405 nM: 0.77 µM
[4]
  K m of the proteolytic activity (substrate affinity): 100 nM SK, Pg 0.3–5.0 µM as substrate, 0.1 mM S2251, absorbance at 405 nM: 7.92 µM

B1: alpha 2‐antiplasmin (natural protein)
chain: NQEQVSPLTLLKLGNQEPGGQTALKSPPGVCSRDPTPEQTHRLARAMMAFTADLFSLVAQTSTCPNLILSPLSVALALSHLALGAQNHTLQRLQQVLHAGSGPCLPHLLSRLCQDLGPGAFRLAARMYLQKGFPIKEDFLEQSEQLFGAKPVSLTGKQEDDLANINQWVKEATEGKIQEFLSGLPEDTVLLLLNAIHFQGFWRNKFDPSLTQRDSFHLDEQFTVPVEMMQARTYPLRWFLLEQPEIQVAHFPFKNNMSFVVLVPTHFEWNVSQVLANLSWDTLHPPLVWERPTKVRLPKLYLKHQMDLVATLSQLGLQELFQAPDLRGISEQSLVVSGVQHQSTLELSEVGVEAAAATSIAMSRMSLSSFSVNRPFLFFIFEDTTGLPLFVGSVRNPNPSAPRELKEQQDSPGNKDFLQSLKGFPRGDKLFGPDLKLVPPMEEDYPQFGSPK
[5]
  retained activity (S‐2251 hydrolysis) of the SK‐Pm complex (20 nM) after 15 min with α2‐AP 100–400 nM, relative to no inhibitor; value at 400 nM: 50%
[6]
  retained activity (S‐2251 hydrolysis) of the SK‐Pm complex (20 nM) after 15 min with α2‐AP 100–400 nM, relative to no inhibitor; value at 400 nM: 80%
[7]
  retained activity (S‐2251 hydrolysis) of the SK‐Pm complex (20 nM) after 15 min with α2‐AP 100–400 nM, relative to no inhibitor; value at 400 nM: 80%
[8]
  retained activity (S‐2251 hydrolysis) of the SK‐Pm complex (20 nM) after 15 min with α2‐AP 100–400 nM, relative to no inhibitor; value at 400 nM: 50%

Source: PMC6609762
